{"source": "patent US8877192B2", "about": "“Rage fusion proteins and methods of use” (TransTech Pharma, LLC, priority 2004, dated 2014)", "molecules": {"B1": {"name": "TTP-3000: three domain RAGE fusion protein (SEQ ID NO: 35): human RAGE amino acids 1-136 linked to CH2 and CH3 domains of human IgG (protein)", "chain": "MAAGTAVGAWVLVLSLWGAVVGAQNITARIGEPLVLKCKGAPKKPPQRLEWKLNTGRTEAWKVLSPQGGGPWDSVARVLPNGSLFLPAVGIQDEGIFRCQAMNRNGKETKSNYRVRVYQIPGKPEIVDSASELTAGPSVFLFPPKPKDTLMISRTPEVTCVVVDVSHEDPEVKFNWYVDGVEVHNAKTKPREEQYNSTYRVVSVLTVLHQDWLNGKEYKCKVSNKALPAPIEKTISKAKGQPREPQVYTLPPSRDELTKNQVSLTCLVKGFYPSDIAVEWESNGQPENNYKTTPPVLDSDGSFFLYSKLTVDKSRWQQGNVFSCSVMHEALHNHYTQKSLSLSPGK"}, "B2": {"name": "mouse sRAGE: mouse soluble RAGE used as comparator in the AD mouse model (protein, UniProt Q62151 23-340, looked up)", "extracellular domain": "GQNITARIGEPLVLSCKGAPKKPPQQLEWKLNTGRTEAWKVLSPQGGPWDSVARILPNGSLLLPATGIVDEGTFRCRATNRRGKEVKSNYRVRVYQIPGKPEIVDPASELTASVPNKVGTCVSEGSYPAGTLSWHLDGKLLIPDGKETLVKEETRRHPETGLFTLRSELTVIPTQGGTHPTFSCSFSLGLPRRRPLNTAPIQLRVREPGPPEGIQLLVEPEGGIVAPGGTVTLTCAISAQPPPQVHWIKDGAPLPLAPSPVLLLPEVGHEDEGTYSCVATHPSHGPQESPPVSIRVTETGDEGPAEGSVGESGLGTLA", "modifications": "extracellular domain", "notes": "mouse soluble RAGE used as comparator in the AD mouse model"}, "B3": {"name": "rodent sRAGE: rodent soluble RAGE, literature half-life comparator (protein, UniProt Q63495 23-341, looked up)", "extracellular domain": "GQNITARIGEPLMLSCKGAPKKPTQKLEWKLNTGRTEAWKVLSPQGDPWDSVARILPNGSLLLPAIGIVDEGTFRCRATNRLGKEVKSNYRVRVYQIPGKPEIVNPASELTANVPNKVGTCVSEGSYPAGTLSWHLDGKPLIPDGKGTVVKEETRRHPETGLFTLRSELTVTPAQGGTTPTYSCSFSLGLPRRRPLNTAPIQPRVREPLPPEGIQLLVEPEGGTVAPGGTVTLTCAISAQPPPQIHWIKDGTPLPLAPSPVLLLPEVGHEDEGIYSCVATHPSHGPQESPPVNIRVTETGDEGQAAGSVDGSGLGTLAL", "modifications": "extracellular domain", "notes": "rodent soluble RAGE, literature half-life comparator"}}, "key": {"[1]": {"settings": "cited from earlier work"}, "[2]": {"settings": "listed as human sRAGE; cited from earlier work"}, "S100b (S100)": {"target": "T1, S100b (S100) (Homo sapiens, UniProt P04271)", "T1 sequence (P04271 1-92)": "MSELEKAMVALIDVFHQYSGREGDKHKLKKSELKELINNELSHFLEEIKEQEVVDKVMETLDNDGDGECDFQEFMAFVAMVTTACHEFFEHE", "assay": "In vitro ligand binding (ELISA) to immobilized S100b", "settings": "increasing dilutions of fusion protein; FIG. 7", "protocol": "(§1) For example, the RAGE fusion protein may be used in a binding assay to identify potential RAGE ligands. In one example embodiment of such a binding assay, a known RAGE ligand may coated onto a solid substrate (e.g., Maxisorb plates) at a concentration of about 5 micrograms per well, where each well contains a total volume of about 100 microliters (μL). The plates may be incubated at 4° C. overnight to allow the ligand to absorb. Alternatively, shorter incubation periods at higher temperature (e.g., room temperature) may be used. […] The fusion protein bound to the immobilized ligand may be detected in a variety of ways. […] The bound complex may be detected by adding the alkaline phosphatase substrate, para-nitrophenylphosphate (PNPP), and measuring conversion of PNPP to para-nitrophenol (PNP) as an increase in absorbance at 405 nm. […] Binding was detected by the addition of an immunodetection complex containing a monoclonal mouse anti-human IgG1 diluted 1:11,000 to a final assay concentration (FAC) of 21 ng/100 μL, a biotinylated goat anti-mouse IgG diluted 1:500, to a FAC of […], and an avidin-linked alkaline phosphatase. […] Binding of the complex to the immobilized fusion protein was quantified by measuring conversion of PNPP to para-nitrophenol (PNP) which was measured spectrophotometrically at 405 nm. […]"}, "amphoterin (Ampho)": {"target": "T2, amphoterin (Ampho) (Homo sapiens, UniProt P09429)", "T2 sequence (P09429 1-215)": "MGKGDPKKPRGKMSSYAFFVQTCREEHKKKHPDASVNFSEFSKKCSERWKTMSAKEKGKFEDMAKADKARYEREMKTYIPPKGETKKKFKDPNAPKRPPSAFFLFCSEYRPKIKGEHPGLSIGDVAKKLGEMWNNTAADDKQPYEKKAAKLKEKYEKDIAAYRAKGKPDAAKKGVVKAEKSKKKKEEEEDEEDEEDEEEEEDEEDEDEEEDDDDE", "assay": "In vitro ligand binding (ELISA) to immobilized amphoterin", "settings": "increasing dilutions of fusion protein; FIG. 7", "protocol": "as §1"}, "amyloid-beta (Abeta)": {"target": "T3, amyloid-beta (Abeta) (Homo sapiens, UniProt P05067)", "T3 construct": "Amyloid Beta (1-40) from Biosource; purchased Biosource", "T3 sequence (P05067 672-711 limits assumed)": "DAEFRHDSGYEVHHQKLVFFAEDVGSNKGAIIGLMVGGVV", "assay": "In vitro ligand binding (ELISA) to immobilized amyloid-beta", "settings": "increasing dilutions of fusion protein; FIG. 7", "protocol": "as §1"}, "[3]": {"system": "transgenic mice expressing the human Swedish mutant amyloid precursor protein (APP)", "assay": "Mouse model of AD (APP transgenic mice)", "type": "in vivo", "settings": "treated for 3 months, versus vehicle and human IgG1", "protocol": "Experiments were performed to evaluate whether TTP-4000 could affect amyloid formation and cognitive dysfunction in a mouse model of AD. The experiments utilized transgenic mice expressing the human Swedish mutant amyloid precursor protein (APP) under the control of the PDGF-B chain promoter. Over time, these mice generate high levels of the RAGE ligand, amyloid beta (Aβ).\nThe APP mice (male) used in this experiment were designed by microinjection of the human APP gene (with the Swedish and London mutations) into mouse eggs under the control of the platelet-derived growth factor B (PDGF-B) chain gene promoter. The mice were generated on a C57BL/6 background and were developed by Molecular Therapeutics Inc. Animals were fed ad libitum and maintained by brother sister mating. The mice generated from this construct develop amyloid deposits starting at 6 months of age. Animals were aged for 6 months and then maintained for 90 days and sacrificed for amyloid quantification.\nAPP transgenic mice were administered vehicle or TTP4000 every other day [qod (i.p.)] for 90 days starting at 6 months of age. At the end of the experiment, animals were sacrificed and examined for Aβ plaque burden in the brain (i.e., plaque number). A 6-month control APP group was used to determine the baseline of amyloid deposits. In addition, at the end of the study, the animals were subjected to behavioral (Morris water maze) analysis. The investigators were blinded to the study compounds. Samples were given to the mice at 0.25 ml/mouse/every other day.\nFor histological examination, the animals were anesthetized with an intraperitoneal injection (IP) of sodium pentobarbital (50 mg/kg). The animals were transcardially perfused with 4° C., phosphate-buffered saline (PBS) followed by 4% paraformaldehyde. The brains were removed and placed in 4% paraformaldehyde over night. The brains were processed to paraffin and embedded. Ten serial 30-μm thick sections through the brain were obtained. Sections were subjected to primary antibody overnight at 4° C. (Aβ peptide antibody) in order to detect the amyloid deposits in the brain of the transgenic animals (Guo et al., J. Neurosci., 22:5900-5909 (2002)). Sections were washed in Tris-buffered saline (TBS) and secondary antibody was added and incubated for 1 hour at room temperature. After washing, the sections were incubated as instructed in the Vector ABC Elite kit (Vector Laboratories) and stained with […] (DAB). The reactions were stopped in water and cover-slipped after treatment with xylene. The amyloid area in each section was determined with a computer-assisted image analysis system, consisting of a Power Macintosh computer equipped with a Quick Capture frame grabber card, Hitachi CCD camera mounted on an Olympus microscope and camera stand. NIH Image Analysis Software, v. 1.55 was used. The images were captured and the total area of amyloid was determined over the ten sections. A single operator blinded to treatment status performed all measurements. Summing the amyloid volumes of the sections and dividing by the total number of sections was done to calculate the amyloid volume.\nFor quantitative analysis, an enzyme-linked immunosorbent assay (ELISA) was used to measure the levels of human total Aβ, Aβtotal and Aβ1-42 in the brains of APP transgenic mice (Biosource International, Camarillo, Calif.). Aβtotal and Aβ1-42 were extracted from mouse brains by guanidine hydrochloride and quantified as described by the manufacturer. […]"}}, "note": "Like-named read-outs stand apart in the source and are kept apart here.", "data": [{"molecule": "sRAGE: soluble RAGE: the RAGE protein that does not include the transmembrane region or the cytoplasmic tail", "values": [{"measurement": "half-life", "setting": "[1]; assessed by retention of immunoreactivity sRAGE", "result": "less than 2 hours"}, {"measurement": "half-life in plasma", "setting": "[2]", "result": "about 2 hours"}]}, {"molecule": "B1", "values": [{"measurement": "binding to immobilized S100b (absorbance at 405 nm)", "setting": "S100b (S100)", "result": "specifically interact"}, {"measurement": "binding to immobilized amphoterin (absorbance at 405 nm)", "setting": "amphoterin (Ampho)", "result": "specifically interact"}, {"measurement": "binding to immobilized amyloid-beta (absorbance at 405 nm)", "setting": "amyloid-beta (Abeta)", "result": "specifically interact"}]}, {"molecule": "B2", "values": [{"measurement": "Aβ plaques in the brain", "setting": "[3]; FIG. 14A", "result": "fewer Aβ plaques"}, {"measurement": "cognitive dysfunction (Morris water maze)", "setting": "[3]; FIG. 14B", "result": "less cognitive dysfunction"}]}, {"molecule": "B3", "values": [{"measurement": "half-life", "setting": "[1]; in normal and diabetic rats", "result": "approximately 20 hours"}]}]}
